Results as given in US20200040069A1 (INDIANA UNIVERSITY RESEARCH AND TECHNOLOGY, published 2020).

Biological target: T1, rat antibody hybridoma clone M7/1 (EMAP II neutralizing M7/1 antibody)
T1 construct: Rat monoclonal IgG from a hybridoma; also called rat monoclonal neutralizing antibody M7
Experiment: description in the sequence table

T1 sequence (VH, as listed by the source, chain 1 of 2): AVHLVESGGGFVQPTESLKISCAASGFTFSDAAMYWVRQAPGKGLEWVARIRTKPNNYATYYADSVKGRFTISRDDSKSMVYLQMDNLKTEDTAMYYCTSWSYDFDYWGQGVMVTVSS
T1 sequence (VL, as listed by the source, chain 2 of 2): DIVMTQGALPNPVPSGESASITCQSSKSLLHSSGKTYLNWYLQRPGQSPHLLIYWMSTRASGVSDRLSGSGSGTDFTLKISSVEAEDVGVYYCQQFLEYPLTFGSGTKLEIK

binding result: binds
B1: Peptide 2 (QQSIAGSADSKPIDVSR) (peptide)
peptide: QQSIAGSADSKPIDVSR
notes: Synthetic peptide from human EMAP II; also called ID NO; 12
